{"source": "paper PMC8163371", "key": {"[1]": {"target": "H3K9me2S28ph nucleosomes (individually reconstituted for quantitative measurements)", "experiment": "MST"}, "[2]": {"target": "H3K9me2 nucleosomes (individually reconstituted for quantitative measurements)", "experiment": "MST"}, "[3]": {"target": "H3K9me2S28ph nucleosomes (individually reconstituted for quantitative measurements)", "experiment": "MST", "remark": "listed apart in the source"}, "[4]": {"target": "H3K9me2S28ph nucleosomes (individually reconstituted for quantitative measurements)", "experiment": "MST", "remark": "listed apart in the source"}, "HP1β (HP1) [5]": {"target": "HP1β (HP1) (UniProt P83916)", "experiment": "eCFP-HP1 retention on H2A + H3 nucleosome library", "settings": "reference: H3K9me2 nucleosomes; sites S28"}, "HP1β (HP1) [6]": {"target": "HP1β (HP1) (UniProt P83916)", "experiment": "eCFP-HP1 retention on immobilised nucleosome library", "settings": "reference: H3K9me2 nucleosomes; sites S28"}}, "note": "Where two headings read alike, the source gives them in different places."}
{"substance": "HP1 without eCFP tag (human HP1β) (from UniProt P83916 1-185) (natural protein)", "values": [{"measurement": "Kd", "setting": "[1]", "result": 1.8, "unit": "µM"}, {"measurement": "Kd", "setting": "[2]", "result": 2.4, "unit": "µM"}, {"measurement": "Kd", "setting": "[3]", "result": 1.7, "unit": "µM"}, {"measurement": "Kd", "setting": "[4]", "result": 0.6, "unit": "µM"}, {"measurement": "fold stronger binding than the H3K9me2 nucleosome on 187 bp DNA", "setting": "[4]", "result": 2, "unit": "fold"}]}
{"substance": "histone H3 H3K9me2S28ph nucleosomes", "values": [{"measurement": "fold change", "setting": "HP1β (HP1) [5]", "result": 2.3, "unit": "fold"}, {"measurement": "other: fold enrichment over unmodified H3 nucleosomes", "setting": "HP1β (HP1) [6]", "result": "stronger; reference 4.8"}]}
